The source of these data is paper PMC4720288.

The assay has as its target human MALT1_(Casp-Ig3)(338–719) (human) (UniProt Q9UDY8). Description: crystal structure; in-house X-ray structure of apo MALT1_(Casp-Ig3), data not published.

As for “human MALT1_(Casp-Ig3)(338–719) (from UniProt Q9UDY8 338-719) (domain or fragment)”, the stoichiometry N was determined as 2.
